Experimental data as given in patent US20020111309A1.

Assays:
[1] = target: Aβ (1-40), beta-amyloid protein of Alzheimer's disease (UniProt P05067); test: cell-based or functional assay
[2] = target: Aβ (1-40), beta-amyloid protein of Alzheimer's disease (UniProt P05067); test: solid phase binding immunoassay, Aβ (1-40) on microtiter wells, laminin in solution, anti-laminin detection, one-site fit

Chain of Aβ (1-40), beta-amyloid protein of Alzheimer's disease (P05067 672-711 limits assumed): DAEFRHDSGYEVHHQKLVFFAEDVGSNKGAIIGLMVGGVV

## Engelbreth-Holm-Swarm (EHS) mouse tumor laminin, P02468 34-1607
[1]
  Thioflavin T fluorescence (Aβ (1-40) amyloid fibril formation), 25 µM Aβ with 100 nM laminin, 1 week: 27.1 fold lower
  Thioflavin T fluorescence (Aβ (1-40) amyloid fibril formation), 25 µM Aβ with 100 nM laminin, 1 hour: 2.9 fold lower
  Thioflavin T fluorescence (Aβ (1-40) amyloid fibril formation), 25 µM Aβ with 100 nM laminin, 1 day: 4.6 fold lower
  Thioflavin T fluorescence (Aβ (1-40) amyloid fibril formation), 25 µM Aβ with 100 nM laminin, 3 days: 30.6 fold lower
  Thioflavin T fluorescence (Aβ fibrillogenesis), second study, 25 µM Aβ with 100 nM laminin, 1 week (fold decrease): 21
  Thioflavin T fluorescence (Aβ fibrillogenesis), second study, 25 µM Aβ with 100 nM laminin, 1 day (fold decrease): 9
  Thioflavin T fluorescence (Aβ fibrillogenesis), second study, 25 µM Aβ with 100 nM laminin, 3 days (fold decrease): 9
  dissolution of pre-formed Aβ amyloid fibrils (Thioflavin T fluorometry, 4 days), 16 nM laminin: 25%
  dissolution of pre-formed Aβ amyloid fibrils (Thioflavin T fluorometry, 4 days), 31 nM laminin: 28%
  dissolution of pre-formed Aβ amyloid fibrils (Thioflavin T fluorometry, 4 days), 63 nM laminin: 39%
  dissolution of pre-formed Aβ amyloid fibrils (Thioflavin T fluorometry, 4 days), 125 nM laminin: 41%
[2]
  Kd: 2.7 nM
